For test [1], the target named is T1, recombinant cynomolgus monkey IL-31 (ECD with His Tag, Sino Biological) (cynomolgus monkey). The test can be described thus: cell-based or functional assay.
For test [2], the target named is T2, human IL-4R on cells (HEK-Blue IL-4/IL-13 cells, human PBMC, human whole blood) (human, UniProt P24394 26-825). The test can be described thus: cell-based or functional assay.
The target of test [3] is T2, human IL-4R on cells (HEK-Blue …). Briefly: cell-based or functional assay. This is another data set of the same source.
Test [4] has as its target T3, recombinant human IL-31 protein (Peprotech) (human, UniProt Q6EBC2 24-164).
T3 sequence (looked up): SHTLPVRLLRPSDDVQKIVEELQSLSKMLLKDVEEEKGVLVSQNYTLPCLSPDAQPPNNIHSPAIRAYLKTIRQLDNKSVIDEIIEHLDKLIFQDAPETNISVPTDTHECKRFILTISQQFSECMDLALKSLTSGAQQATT
The test can be described thus: cell-based or functional assay.

Test [5] addresses T4, recombinant cynomolgus monkey IL-4R (ECD with His-tag, Acro Biosystems) (cynomolgus monkey, UniProt A0A2K5V556 26-232).
T4 construct: bought; also called cynomolgus IL-4R
Briefly: SPR, Morrison captured via anti-human IgG-Fc, IL-4R ECD-His analyte. Here is the method: (§1) Binding kinetics (including affinity) of the bispecific Morrison-H (PRO2198, PRO2199) and Morrison-L (PRO2206, PRO2207) molecules to recombinant human IL-4R protein (ECD with His Tag, Sino Biological) were determined by SPR analysis on a T200 device (Biacore, Cytiva). In this SPR experiment, Morrison molecules were captured via an anti-human IgG-Fc antibody (Human Antibody Capture Kit; Biacore, Cytiva) covalently immobilized to a carboxylmethylated dextran surface (CM5 sensorchip; Biacore, Cytiva) and a titration series of human IL-4R ECD was injected as analyte. After each analyte injection cycle, the sensor chip was regenerated (MgCl₂), and new Morrison antibody was subsequently re-captured. […] The apparent dissociation (kd) and association (kₐ) rate constants and the apparent dissociation equilibrium constant (KD) were calculated with the Biacore analysis software (Biacore Evaluation software Version 3.2, Cytiva) using one-to-one Langmuir binding model and quality of the fits was monitored based on Chi2 and U-value, which are measures for the quality of the curve fitting. The binding level was calculated as the maximum stability binding achieved normalized to the theoretical Rmax. Cross-reactivity to cynomolgus monkey IL-4R was measured using the same setup as for the analysis of human IL-4R kinetics, with the difference that recombinant cynomolgus monkey IL-4R (ECD with His-tag, Acro Biosystems) protein was used as analyte instead of human IL-4R.

Test [6] addresses T5, recombinant human IL-4R protein (ECD with His Tag, Sino Biological) (human, UniProt P24394 26-232).
T5 construct: extracellular domain; bought; also called human IL-4R ECD; not shown: His Tag
The description is as above. The procedure:
as §1

In test [7] the target is T2, human IL-4R on cells (HEK-Blue …). Briefly: cell-based or functional assay. The source holds these as a separate data set.
For test [8], the target named is T3, recombinant human IL-31 protein …. Briefly: cell-based or functional assay. This is another data set of the same source.
For test [9], the target named is T1, recombinant cynomolgus monkey IL-31 …. The test can be described thus: SPR, Morrison captured on immobilized human IL-4R-Fc, IL-31 analyte.
In test [10] the target is T6, human IL-4R on transfected HEK293T cells (human, UniProt P24394 26-825).
T6 construct: whole, on cells; also called human IL-4R-expressing HEK293T cells; not shown: V5 Tag fused to the N-terminus of the expression construct
Briefly: flow cytometry, transfected HEK293T cells. An excerpt:
(§2) To test binding of the Morrison-H and Morrison-L antibodies PRO2198, PRO2199, PRO2206 and PRO2207 to human or cynomolgus IL-4R-expressing HEK293T cells, HEK293T cells were transfected with human and cynomolgus IL-4R plasmids and mock plasmid using Lipofectamine3000. Binding of an antibody targeting V5 Tag, which is fused to the N-terminus of human and cynomolgus IL-4R expression constructs, would confirm successful expression of both targets and was thus used as a positive control for plasma membranous binding. The Morrison-H molecule PRO2077 was used as negative control for cynomolgus IL-4R binding since this molecule had not shown any cross-reactivity to cynomolgus IL-4R (see section 5.3.).
(§3) 50,000 transfected HEK293T cells per well were seeded in a 96-well plate. 5-fold serial dilutions of the Morrison-H and Morrison-L antibodies PRO2198, PRO2199, PRO2206 and PRO2207 and of the control molecule PRO2077, which is not cross-reactive to cynomolgus IL-4R, were added at concentrations ranging from 5,000 to 0.32 ng/ml to the plates and incubated for 60 min at 4° C. on a shaker. Supernatants were removed and detection reagent was added for flow cytometry analysis. The geometric mean of the APC fluorescence intensity of single cells was calculated.

The target of test [11] is T7, cynomolgus IL-4R on transfected HEK293T cells (cynomolgus monkey, UniProt A0A2K5V580 33-832).
T7 construct: whole, on cells; also called cynomolgus IL-4R-expressing HEK293T cells; not shown: V5 Tag fused to the N-terminus of the expression construct
The test can be described thus: flow cytometry, transfected HEK293T cells.
Description: as §2, §3

Test [12] has as its target T2, human IL-4R on cells (HEK-Blue …). Briefly: cell-based or functional assay. The source holds these as a separate data set.

T4 sequence (A0A2K5V556 entry or part of it limits assumed): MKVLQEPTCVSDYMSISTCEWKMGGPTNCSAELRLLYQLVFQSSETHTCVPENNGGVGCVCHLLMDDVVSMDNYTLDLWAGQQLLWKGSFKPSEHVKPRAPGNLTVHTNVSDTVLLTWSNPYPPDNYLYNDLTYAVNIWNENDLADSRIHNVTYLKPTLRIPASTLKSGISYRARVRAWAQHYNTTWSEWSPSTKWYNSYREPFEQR
T7 sequence (A0A2K5V580 entry or part of it): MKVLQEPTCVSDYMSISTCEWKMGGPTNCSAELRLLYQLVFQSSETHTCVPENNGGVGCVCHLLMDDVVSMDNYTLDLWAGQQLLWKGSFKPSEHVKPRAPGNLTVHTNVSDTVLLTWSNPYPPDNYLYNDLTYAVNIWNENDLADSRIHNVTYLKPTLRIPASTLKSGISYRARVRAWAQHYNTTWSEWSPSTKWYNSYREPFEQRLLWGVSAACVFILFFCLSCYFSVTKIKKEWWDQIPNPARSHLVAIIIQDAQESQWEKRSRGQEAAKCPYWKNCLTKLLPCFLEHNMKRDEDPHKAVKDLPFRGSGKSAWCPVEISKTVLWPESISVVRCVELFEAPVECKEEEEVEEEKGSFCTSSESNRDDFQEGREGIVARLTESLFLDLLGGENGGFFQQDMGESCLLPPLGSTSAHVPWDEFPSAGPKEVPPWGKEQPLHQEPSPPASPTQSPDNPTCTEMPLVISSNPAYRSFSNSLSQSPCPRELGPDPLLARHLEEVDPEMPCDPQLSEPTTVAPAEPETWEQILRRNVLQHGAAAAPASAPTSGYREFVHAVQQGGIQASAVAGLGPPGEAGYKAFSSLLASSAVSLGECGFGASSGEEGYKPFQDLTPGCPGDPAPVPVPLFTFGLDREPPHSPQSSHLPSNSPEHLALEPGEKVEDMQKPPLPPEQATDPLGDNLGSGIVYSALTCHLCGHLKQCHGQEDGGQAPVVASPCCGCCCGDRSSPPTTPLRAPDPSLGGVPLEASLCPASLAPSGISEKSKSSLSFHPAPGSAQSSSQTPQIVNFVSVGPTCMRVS

B1: PRO2198 (bispecific antibody, human IgG4 S228P, kappa)
light: DIQMTQSPSSLSARVGDRVTITCQASEDIESYLAWYQQKPGKAPKLLIYRASTLAYGVPSRFSGSGSGRDFTLTISSLQPEDFATYYCLGSSYSTGSNIFGQGTKVEIKRTVAAPSVFIFPPSDEQLKSGTASVVCLLNNFYPREAKVQWKVDNALQSGNSQESVTEQDSKDSTYSLSSTLTLSKADYEKHKVYACEVTHQGLSSPVTKSFNRGEC
heavy: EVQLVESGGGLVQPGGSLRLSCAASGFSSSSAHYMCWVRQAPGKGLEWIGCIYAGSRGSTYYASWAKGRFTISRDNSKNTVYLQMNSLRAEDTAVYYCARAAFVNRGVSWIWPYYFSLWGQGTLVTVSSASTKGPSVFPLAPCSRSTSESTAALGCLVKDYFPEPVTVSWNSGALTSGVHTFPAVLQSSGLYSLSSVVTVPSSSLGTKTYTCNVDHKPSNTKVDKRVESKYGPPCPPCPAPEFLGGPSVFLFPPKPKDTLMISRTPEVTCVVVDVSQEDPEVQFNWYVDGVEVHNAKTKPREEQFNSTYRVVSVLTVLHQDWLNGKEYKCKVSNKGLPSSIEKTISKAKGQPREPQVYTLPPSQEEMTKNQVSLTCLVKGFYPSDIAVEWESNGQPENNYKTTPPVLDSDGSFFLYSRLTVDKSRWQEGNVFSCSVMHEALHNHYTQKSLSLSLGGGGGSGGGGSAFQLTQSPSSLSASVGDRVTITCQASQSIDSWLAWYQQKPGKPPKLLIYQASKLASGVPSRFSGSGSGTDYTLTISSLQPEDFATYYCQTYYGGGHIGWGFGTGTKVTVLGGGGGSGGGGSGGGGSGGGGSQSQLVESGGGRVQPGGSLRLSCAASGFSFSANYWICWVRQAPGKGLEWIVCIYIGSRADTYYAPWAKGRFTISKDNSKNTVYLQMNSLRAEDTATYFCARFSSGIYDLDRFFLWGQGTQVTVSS
notes: IgG4 (S228P) Morrison-H, anti-IL-4R Fab arms, anti-IL-31 scFv on the C-terminus of the heavy chain; tetravalent, bispecific; also called Morrison-H; MorrH
For B1, the “IC50, cynomolgus IL-31-induced IL-31RA/OSMR dimerization (RLU) [table under the graph]” value in test [1] came out at 0.959 nM. Besides, the “Mean IC50, human IL-13-induced signaling, stat-6 reporter gene assay” value in [2] amounted to 0.0221 nM. Besides, in [3], the “IC50, IL-4-induced TARC secretion in human whole blood” value was under 0.5 nM. In addition, the “IC50 (read off the curve), human IL-31-induced IL-31RA/OSMR dimerization, with an excess of IL-4R extracellular domain in the medium” value in test [4] was about 0.2 nM. In addition, in test [5], the Kd is 0.144 nM, the koff turned out to be 4.9e-05 s⁻¹ and the kon amounted to 370000 M⁻¹ s⁻¹. Further, in test [6], the Kd amounted to 0.291 nM, the koff amounted to 0.000101 s⁻¹ and the kon was 352000 M⁻¹ s⁻¹. The “Mean IC50, human IL-4-induced signaling, stat-6 reporter gene assay” value in [7] was found to be 0.0239 nM. The “Mean IC50, human IL-31-induced signaling, IL-31RA/OSMR dimerization assay” value in test [8] was 0.198 nM. Besides, the dissociation constant (Kd) in [9] worked out at 0.01 nM. For the same molecule, the EC50 in test [10] worked out at 1.11 nM. The response in [11] was half-maximal at 0.97 nM (EC50). In addition, in test [12], the “IC50, IL-4-induced CD23 expression, memory B cells” value was 4.47 nM; the “IC50, IL-4-induced CD23 expression, monocytes (blood donor 1)” value was 0.0904 nM; the “IC50, IL-4-induced CD23 expression, naive B cells” value was 1.37 nM.
